The record followed here is article PMC2860019 (Journal of molecular biology, 2010).

Data set [1] has as its target Cp(-10)149d (recombinant HBV e-antigen, residues (-10)-149, C48A, C107A, G123A; dimer) (Hepatitis B virus) (UniProt P03147). Briefly: AUC.
The data set “AUC” concerns the molecule itself. Briefly: AUC.

Take “Cp(-10)149d (recombinant HBV e-antigen, residues (-10)-149, C48A, C107A, G123A; dimer) (from UniProt P03147 1-149) (natural protein)”: the stoichiometry N (as a rule, the number of molecules, sites or subunits per partner or assembly) in data set [1] stood at 2.

B1: Cp149d (HBV capsid protein residues 1-149, C48A, C107A, G123A; dimer) (domain or fragment)
chain: MDIDPYKEFGATVELLSFLPSDFFPSVRDLLDTAAALYRDALESPEHASPHHTALRQAILCWGDLMTLATWVGTNLEDPASRDLVVSYVNTNVGLKFRQLLWFHISALTFGRETVLEYLVSFAVWIRTPPAYRPPNAPILSTLPETTVV
As to B1, in the data set “AUC”, the “stoichiometry N” value is 2.
